The values below come from article PMC4755656, “Interaction Analysis of a Two-Component System Using Nanodiscs” (PLoS ONE, 2016).

Holding throughout (details): both partners purified
In assay [1] the target is T1, NT-647-labelled CpxA-Strep reconstituted in nanodiscs (CpxA-ND), as used for MST (E. coli, UniProt P0AE82 1-457, NT-647 dye (NHS NT-647 labeling kit; typically one primary amine per protein, position statistical)).
T1 construct: CpxA sits in a lipid bilayer ringed by two MSP1D1 molecules (1:1 molar ratio of MSP to CpxA); also called labeled CpxA-Strep in nanodiscs; CpxA-Strep nanodiscs; source: E. coli BL21(DE3) pLysS, from pI1CpxA, purified (Strep-Tactin Superflow); labelled, then reconstituted into nanodiscs; not shown: Strep, C-terminal, kept
T1 sequence (looked up): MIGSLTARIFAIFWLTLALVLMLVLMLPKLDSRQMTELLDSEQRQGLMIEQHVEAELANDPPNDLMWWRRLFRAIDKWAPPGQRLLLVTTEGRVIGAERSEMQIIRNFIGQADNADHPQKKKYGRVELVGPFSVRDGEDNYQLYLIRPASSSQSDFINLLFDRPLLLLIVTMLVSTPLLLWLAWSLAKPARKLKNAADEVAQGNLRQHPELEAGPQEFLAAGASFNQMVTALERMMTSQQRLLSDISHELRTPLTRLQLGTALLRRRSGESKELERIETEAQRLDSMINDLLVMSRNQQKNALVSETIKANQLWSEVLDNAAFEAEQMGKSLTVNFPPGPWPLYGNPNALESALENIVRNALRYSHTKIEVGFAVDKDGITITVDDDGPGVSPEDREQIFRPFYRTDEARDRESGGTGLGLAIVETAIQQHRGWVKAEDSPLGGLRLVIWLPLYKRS
Nature of the assay: MST; as a3, with the non-hydrolysable ATP analogue AMP-PNP and MgCl2.

The target of assay [2] is T1, NT-647-labelled CpxA-Strep …. Nature of the assay: MST; NT-647-labelled CpxA-Strep in nanodiscs (or labelled MSP1D1 in empty nanodiscs) constant at 150 nM; unlabelled CpxR (0.007-237.5 µM) or CpxP (0.01-367.5 µM) titrated; HEPES-buffered saline (20 mM HEPES pH 7.5, 150 mM NaCl), RT; no nucleotide.
Assay [3] shares this target. Put plainly: MST; as a3, with ADP and MgCl2 (phosphatase-competent state mimicked).
Assay [4] deals with T2, sensor histidine kinase CpxA reconstituted in nanodiscs (CpxA-ND), as used for SPR (E. coli, UniProt P0AE82 1-457).
T2 construct: CpxA sits in a lipid bilayer ringed by two MSP1D1 molecules whose His-tag was removed with TEV protease for SPR; one or two dimers per nanodisc; also called CpxA in nanodiscs; source: E. coli BL21(DE3) pLysS, purified from solubilised membranes; reconstituted into nanodiscs (MSP1D1, E. coli total lipid extract, beta-cyclodextrin)
T2 sequence (looked up): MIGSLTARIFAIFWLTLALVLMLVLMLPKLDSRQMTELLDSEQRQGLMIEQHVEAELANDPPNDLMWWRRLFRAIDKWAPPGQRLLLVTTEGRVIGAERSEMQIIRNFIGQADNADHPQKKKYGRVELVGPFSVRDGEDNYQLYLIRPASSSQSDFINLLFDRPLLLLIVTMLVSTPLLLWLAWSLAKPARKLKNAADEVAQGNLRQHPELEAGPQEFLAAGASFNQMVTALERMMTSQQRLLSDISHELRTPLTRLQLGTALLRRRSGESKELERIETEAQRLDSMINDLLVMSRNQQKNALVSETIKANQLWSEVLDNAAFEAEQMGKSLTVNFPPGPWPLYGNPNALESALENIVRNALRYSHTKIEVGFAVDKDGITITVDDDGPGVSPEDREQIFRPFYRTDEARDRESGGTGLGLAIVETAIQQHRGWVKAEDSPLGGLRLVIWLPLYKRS
Nature of the assay: SPR; His6-CpxR (50 nM, about 300 RU) captured on an anti-His antibody chip; CpxA-ND or empty ND injected at 25-1000 nM; HBS (10 mM HEPES pH 7.4, 150 mM NaCl), 25 °C; constants from Interaction Map analysis of the sensorgrams.

For assay [5], the target named is T1, NT-647-labelled CpxA-Strep …. Nature of the assay: MST; as a3, CpxA-Strep nanodiscs supplemented with 500 µM ATP and 5 mM MgCl2 before mixing with CpxR.
For assay [6], the target named is T3, phosphorylated CpxA in nanodiscs (CpxA-P-ND) (E. coli, UniProt P0AE82 1-457, phosphorylated (autophosphorylation with ATP and MgCl2); residue number not given).
T3 construct: As m1, phosphorylated; also called phosphorylated CpxA-P-ND; source: E. coli BL21(DE3) pLysS, purified; reconstituted into nanodiscs; phosphorylated by adding ATP and MgCl2 (2 mM Mg2+-ATP present)
T3 sequence (looked up): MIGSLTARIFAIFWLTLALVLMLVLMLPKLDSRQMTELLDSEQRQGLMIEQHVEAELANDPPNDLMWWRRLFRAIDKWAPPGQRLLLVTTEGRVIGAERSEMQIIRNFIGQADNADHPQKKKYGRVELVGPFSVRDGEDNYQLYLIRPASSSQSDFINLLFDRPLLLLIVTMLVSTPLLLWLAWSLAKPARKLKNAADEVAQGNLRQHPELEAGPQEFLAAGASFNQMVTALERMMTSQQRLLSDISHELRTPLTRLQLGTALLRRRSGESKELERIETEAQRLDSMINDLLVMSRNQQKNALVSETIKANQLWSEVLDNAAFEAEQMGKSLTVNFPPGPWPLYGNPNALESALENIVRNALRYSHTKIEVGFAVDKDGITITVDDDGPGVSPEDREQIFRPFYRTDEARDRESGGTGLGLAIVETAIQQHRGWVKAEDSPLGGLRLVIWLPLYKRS
Nature of the assay: SPR; as a1, but CpxA-P-ND injected in the presence of 2 mM Mg2+-ATP; constants from Interaction Map analysis (peak assigned to phosphorylated CpxA).

B1: response regulator CpxR, His6-tagged (His6-CpxR) (natural protein, E. coli, UniProt P0AE88 1-232, looked up)
chain: MNKILLVDDDRELTSLLKELLEMEGFNVIVAHDGEQALDLLDDSIDLLLLDVMMPKKNGIDTLKALRQTHQTPVIMLTARGSELDRVLGLELGADDYLPKPFNDRELVARIRAILRRSHWSEQQQNNDNGSPTLEVDALVLNPGRQEASFDGQTLELTGTEFTLLYLLAQHLGQVVSREHLSQEVLGKRLTPFDRAIDMHISNLRRKLPDRKDGHPWFKTLRGRGYLMVSAS
notes: CpxR, response regulator of the Cpx two-component system, E. coli; not shown: His6, N-terminal, kept
Regarding B1, the Kd came to 110 ± 20 nM in assay [1]; 3700 ± 500 nM in assay [2]; 1600 ± 300 nM in assay [3]; 236 nM in assay [4]; 550 ± 60 nM in assay [5]; 24.8 nM in assay [6]. The koff in assay [4] is 0.000473 s⁻¹; in assay [6], 4.38e-05 s⁻¹. Moreover, the kon came to 2010 M⁻¹ s⁻¹ in assay [4] and 1760 M⁻¹ s⁻¹ in assay [6].

B2: periplasmic accessory protein CpxP, His6-tagged (His6-CpxP) (natural protein, E. coli, UniProt P0AE85 22-166, looked up)
chain: AEVGSGDNWHPGEELTQRSTQSHMFDGISLTEHQRQQMRDLMQQARHEQPPVNVSELETMHRLVTAENFDENAVRAQAEKMANEQIARQVEMAKVRNQMYRLLTPEQQAVLNEKHQQRMEQLRDVTQWQKSSSLKLLSSSNSRSQ
notes: CpxP, periplasmic accessory protein of the Cpx two-component system, E. coli; The introduction says, citing other work, that CpxP acts as a homodimer
In turn, B2 showed a Kd in assay [2] greater than 100000 nM.
